Residue numbers refer to the chain shown, from its start. In names and notes the source's numbering stands.
Assays:
[1] = system: O=[N+]([O-])c1ccc(O[C@@H]2O[C@H](CO)[C@@H](O)[C@H](O)[C@H]2O)cc1; experiment: purified protein; conditions: pH 10.0, glycine-NaOH
purified protein = substrate: O=[N+]([O-])c1ccc(O[C@@H]2O[C@H](CO)[C@@H](O)[C@H](O)[C@H]2O)cc1; experiment: purified protein; conditions: pH 10.0, glycine-NaOH, 30 °C
[2] = results text says 30 °C, methods say optimal temperatures of 30 and 50 °C

Molecule: Bgl1D (uncultured microorganism; K117N/L115Q/M148K/Q25L/S28T)
- Km ([1]; 30 °C): 1740 ± 140 µM
- Vmax ([1]; 30 °C): 37.5 µmol/min/mg
- kcat ([1]; 30 °C): 31.2 s⁻¹
- kcat/Km ([1]; 30 °C): 17900 M⁻¹ s⁻¹

Molecule: Bgl1D (uncultured microorganism; E154G/I57K/S28P/W122G/Y82S)
- Km ([1]; 30 °C): 1670 ± 120 µM
- Vmax ([1]; 30 °C): 42.5 µmol/min/mg
- kcat ([1]; 30 °C): 55.8 s⁻¹
- kcat/Km ([1]; 30 °C): 33400 M⁻¹ s⁻¹

Molecule: Bgl1D (uncultured microorganism; D44E/L115N/R91G/S28T/Y37H)
- Km [1, 2]: 430 ± 40 µM
- Vmax [1, 2]: 314 µmol/min/mg
- kcat [1, 2]: 242 s⁻¹
- kcat/Km [1, 2]: 562000 M⁻¹ s⁻¹

Molecule: Bgl1D (uncultured microorganism; K117N/M148K/Q25L)
- Km ([1]; 30 °C): 1250 ± 120 µM
- Vmax ([1]; 30 °C): 21.7 µmol/min/mg
- kcat ([1]; 30 °C): 23.8 s⁻¹
- kcat/Km ([1]; 30 °C): 14400 M⁻¹ s⁻¹

B1: Bgl1D (uncultured microorganism; L115N/S28T) (protein)
chain: MSLFFTFNPLEIVPTRVIGVPNHYQNYTWCNFQNGDYPFIDGIDINLIYQVKVGIPIVVRLETVATIFNILIPHLSESERDYIKRVYDYLRLDGRTSQSSYFFGPVDSQKIGLINRKYFFEWSSQMTYECLSGKVRGIAAPDKLVSEMNEIYNELMKVFNGDVSNIVNIGVN
- Km (purified protein): 1010 ± 450 µM
- Vmax (purified protein): 26.3 µmol/min/mg
- kcat (purified protein): 16.5 s⁻¹
- kcat/Km (purified protein): 16400 M⁻¹ s⁻¹

B2: Bgl1D (uncultured microorganism; D44E/F68L/I70M/R91G/Y37H) (protein)
chain: B1 chain with T28S, Y37H, D44E, F68L, I70M, R91G, N115L
- Km (purified protein): 470 ± 20 µM
- Vmax (purified protein): 154 µmol/min/mg
- kcat (purified protein): 139 s⁻¹
- kcat/Km (purified protein): 296000 M⁻¹ s⁻¹

B3: Bgl1D (uncultured microorganism) (protein)
chain: B1 chain with T28S, N115L
- Km (purified protein): 540 ± 30 µM
- Vmax (purified protein): 20.1 µmol/min/mg
- kcat (purified protein): 13.4 s⁻¹
- kcat/Km (purified protein): 24800 M⁻¹ s⁻¹

B4: Bgl1D (uncultured microorganism; F68L/I70M) (protein)
chain: B1 chain with T28S, F68L, I70M, N115L
- Km (purified protein): 530 ± 80 µM
- Vmax (purified protein): 25.8 µmol/min/mg
- kcat (purified protein): 29.4 s⁻¹
- kcat/Km (purified protein): 55400 M⁻¹ s⁻¹

B5: Bgl1D (uncultured microorganism; E154G/I57K/S28P) (protein)
chain: B1 chain with T28P, I57K, N115L, E154G
- Km (purified protein): 1170 ± 50 µM
- Vmax (purified protein): 52.9 µmol/min/mg
- kcat (purified protein): 48.1 s⁻¹
- kcat/Km (purified protein): 41100 M⁻¹ s⁻¹

— paper PMC6940790
